Source: patent publication US20230212319A1, “NOVEL ANTIGEN BINDING DOMAINS AND SYNTHETIC ANTIGEN RECEPTORS INCORPORATING THE SAME” (University of Southern California, priority 2020, published 2023)

B1: 22201 (protein)
chain: MALPVTALLLPLALLLHAARPACEVQLLESGGGLIQPGGSLRLSCAASGFTFSSHAMTWVRQAPGKGLEWVSAISGSGDYTHYADSVKGRFTISRDNSKNTVYLQMNSLRAEDSAVYYCAKDEDGGSLLGHRGQGTLVTVSSGTGGGGSGGGGSGGGGSEFAGHLEQPQISSTKTLSKTARLECVVSGITISATSVYWYRERPGEVIQFLVSISYDGTVRKESGIPSGKFEVDRIPETSTSTLTIHNVEKQDIATYYCALWEAQQELGKKIKVFGPGTKLIITDKQLDKQLDADVSPKPTIFLPSIAETKLQKAGTYLCLLEKFFPDVIKIHWQEKKSNTILGSQEGNTMKTNDTYMKFSWLTVPEKSLDKEHRCIVRHENNKNGVDQEIIFPPIKTDVITMDPKDNCSKDANDTLLLQLTNTSAYYMYLLLLLKSVVYFAIITCCLLRRTAFCCNGEKSRAKRSGSGATNFSLLKQAGDVEENPGPTSATMDWIWRILFLVGAATGAHSGPQVQLQESGGGLAQAGGSLRLSCAASGRTFSMGWFRQAPGKEREFVAAITYSGGSPYYASSVRGRFTISRDNAKNTVYLQMNSLKPEDTAVYYCAANPTYGSDWNAENWGQGTQVTVSSGSGGGGSGGGGSGGGGSFEAIELVPEHQTVPVSIGVPATLRCSMKGEAIGNYYINWYRKTQGNTMTFIYREKDIYGPGFKDNFQGDIDIAKNLAVLKILAPSERDEGSYYCACDTLGMGGEYTDKLIFGKGTRVTVEPRSQPHTKPSVFVMKNGTNVACLVKEFYPKDIRINLVSSKKITEFDPAIVISPSGKYNAVKLGKYEDSNSVTCSVQHDNKTVHSTDFEVKTDSTDHVKPKETENTKQPSKSCHKPKAIVHTEKVNMMSLTVLGLRMLFAKTVAVNFLLTAKLFFLRAKRSGSGVKQTLNFDLLKLAGDVESNPGPSRAHMTEYKPTVRLATRDDVPRAVRTLAAAFADYPATRHTVDPDRHIERVTELQELFLTRVGLDIGKVWVADDGAAVAVWTTPESVEAGAVFAEIGPRMAELSGSRLAAQQQMEGLLAPHRPKEPAWFLATVGVSPDHQGKGLGSAVVLPGVEAAERAGVPAFLETSAPRNLPFYERLGFTVTADVEVPEGPRTWCMTRKPGA
B2: 22115 (protein)
chain: MALPVTALLLPLALLLHAARPQVQLVESGGGLVQPGGSLRLSCAASGFTFTNHAMSWVRQAPGKGLELVSSISGNGRTTYYADSVKGRFTISRDISKNTLDLQMNSLRAEDTAVYYCAKDGGETLVDSRGQGTLVTVSSLEDLKNVFPPEVAVFEPSKAEIAHTQKATLVCLATGFYPDHVELSWWVNGKEVHSGVCTDPQPLKEQPALNDSRYCLSSRLRVSATFWQNPRNHFRCQVQFYGLSENDEWTQDRAKPVTQIVSAEAWGRADCGITSASYHQGVLSATILYEILLGKATLYAVLVSALVLMAMVKRKDSRGRAKRSGSGATNFSLLKQAGDVEENPGPTSTMALPVTALLLPLALLLHAARPQVQLVESGGGLVQPGGSLRLSCAASGFTFTNHAMSWVRQAPGKGLELVSSISGNGRTTYYADSVKGRFTISRDISKNTLDLQMNSLRAEDTAVYYCAKDGGETLVDSRGQGTLVTVSSLESGGGGSFEQVQLQQPGAELVKPGASVKMSCKASGYAFSSYWINWMKQKPGQGLEWIGQIYPGDGDTNYNGKFKGRATLTADTSSSTAYMQLSSLTSEDSAVYFCARSITTVVGCAMDYWGQGTSVTVSSTRIQNPDPAVYQLRDSKSSDKSVCLFTDFDSQTNVSQSKDSDVYITDKCVLDMRSMDFKSNSAVAWSNKSDFACANAFNNSIIPEDTFFPSSDVPCDVKLVEKSFETDTNLNFQNLSVIGFRILLLKVAGFNLLMTLRLWSSRAKRSGSGVKQTLNFDLLKLAGDVESNPGPSRGHMTEYKPTVRLATRDDVPRAVRTLAAAFADYPATRHTVDPDRHIERVTELQELFLTRVGLDIGKVWVADDGAAVAVWTTPESVEAGAVFAEIGPRMAELSGSRLAAQQQMEGLLAPHRPKEPAWFLATVGVSPDHQGKGLGSAVVLPGVEAAERAGVPAFLETSAPRNLPFYERLGFTVTADVEVPEGPRTWCMTRKPGA
B3: 22161 (protein)
chain: MALPVTALLLPLALLLHAARPACEVQLLESGGGLIQPGGSLRLSCAASGFTFSSHAMTWVRQAPGKGLEWVSAISGSGDYTHYADSVKGRFTISRDNSKNTVYLQMNSLRAEDSAVYYCAKDEDGGSLLGHRGQGTLVTVSSGTGGGGSGGGGSGGGGSEFDIQMTQSPSSLSASVGDRVTITCKASDHINNWLAWYQQKPGQAPKLLIYGATTLETGVPSRFSGSGSGTDYTLTISSLQPEDFATYYCQQSWNTPWTFGQGTKLEIKRLEDLKNVFPPEVAVFEPSEAEISHTQKATLVCLATGFYPDHVELSWWVNGKEVHSGVCTDPQPLKEQPALNDSRYCLSSRLRVSATFWQNPRNHFRCQVQFYGLSENDEWTQDRAKPVTQIVSAEAWGRADCGFTSESYQQGVLSATILYEILLGKATLYAVLVSALVLMAMVKRKDSRGRAKRSGSGATNFSLLKQAGDVEENPGPTSATMDWIWRILFLVGAATGAHSGPEVQLVESGGGLVQAGGSLRLSCAASGRTFSMGWFRQAPGKEREFVAAITYSGGSPYYADSVKGRFTISRDNAKNTVYLQMNSLKPEDTAVYYCAANPTYGSDWNAENWGQGTQVTVSSGSGGGGSGGGGSGGGGSFEQVQLQQPGAELVKPGASVKMSCKASGYAFSSYWINWMKQKPGQGLEWIGQIYPGDGDTNYNGKFKGRATLTADTSSSTAYMQLSSLTSEDSAVYFCARSITTVVGCAMDYWGQGTSVTVSSTRIQNPDPAVYQLRDSKSSDKSVCLFTDFDSQTNVSQSKDSDVYITDKCVLDMRSMDFKSNSAVAWSNKSDFACANAFNNSIIPEDTFFPSPESSCDVKLVEKSFETDTNLNFQNLSVIGFRILLLKVAGFNLLMTLRLWSSRAKRSGSGVKQTLNFDLLKLAGDVESNPGPSRGHMTEYKPTVRLATRDDVPRAVRTLAAAFADYPATRHTVDPDRHIERVTELQELFLTRVGLDIGKVWVADDGAAVAVWTTPESVEAGAVFAEIGPRMAELSGSRLAAQQQMEGLLAPHRPKEPAWFLATVGVSPDHQGKGLGSAVVLPGVEAAERAGVPAFLETSAPRNLPFYERLGFTVTADVEVPEGPRTWCMTRKPGA
B4: 22105 (protein)
chain: MALPVTALLLPLALLLHAARPDIQMTQSPSSLSASVGDRVTITCKASDHINNWLAWYQQKPGQAPKLLIYGATTLETGVPSRFSGSGSGTDYTLTISSLQPEDFATYYCQQSWNTPWTFGQGTKLEIKRLEDLKNVFPPEVAVFEPSEAEISHTQKATLVCLATGFYPDHVELSWWVNGKEVHSGVCTDPQPLKEQPALNDSRYCLSSRLRVSATFWQNPRNHFRCQVQFYGLSENDEWTQDRAKPVTQIVSAEAWGRADCGFTSESYQQGVLSATILYEILLGKATLYAVLVSALVLMAMVKRKDSRGRAKRSGSGATNFSLLKQAGDVEENPGPTSATMDWIWRILFLVGAATGAHSGPQVQLQESGGGLAQAGGSLRLSCAASGRTFSMGWFRQAPGKEREFVAAITYSGGSPYYASSVRGRFTISRDNAKNTVYLQMNSLKPEDTAVYYCAANPTYGSDWNAENWGQGTQVTVSSGSGGGGSGGGGSGGGGSFEQVQLQQPGAELVKPGASVKMSCKASGYAFSSYWINWMKQKPGQGLEWIGQIYPGDGDTNYNGKFKGRATLTADTSSSTAYMQLSSLTSEDSAVYFCARSITTVVGCAMDYWGQGTSVTVSSTRIQNPDPAVYQLRDSKSSDKSVCLFTDFDSQTNVSQSKDSDVYITDKCVLDMRSMDFKSNSAVAWSNKSDFACANAFNNSIIPEDTFFPSPESSCDVKLVEKSFETDTNLNFQNLSVIGFRILLLKVAGFNLLMTLRLWSSRAKRSGSGVKQTLNFDLLKLAGDVESNPGPSRGHMTEYKPTVRLATRDDVPRAVRTLAAAFADYPATRHTVDPDRHIERVTELQELFLTRVGLDIGKVWVADDGAAVAVWTTPESVEAGAVFAEIGPRMAELSGSRLAAQQQMEGLLAPHRPKEPAWFLATVGVSPDHQGKGLGSAVVLPGVEAAERAGVPAFLETSAPRNLPFYERLGFTVTADVEVPEGPRTWCMTRKPGA

What was measured:
Assay type in all cases: cell-based
[1] = tested on: Nalm6 cells; assay: JNG assay, co-culture with Nalm6 cells; conditions: co-culture with Nalm6
Summary of the method: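 Jurkat NFAT-GFP reporter cells stably expressing lentivirally delivered SARs (puromycin or blasticidin selection) were cocultured with target cells at E:T ~1:2 for ~4–18 h. GFP was read by FACS, and % GFP+ cells were scored against parental reporter cells (+/-, +, 2+…5+ ≈ 5%, 10%, 20%…50%).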

[2] = tested on: RAJI-CD19-KO cells; assay: JNG assay, co-culture with RAJI-CD19-KO cells; conditions: co-culture with Raji-CD19-KO
Summary of the method: (§1)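 Jurkat-NFAT-GFP (JNG) cells stably expressing SAR constructs via lentiviral transduction and puromycin/blasticidin selection were cocultured with target cells at E:T ~1:2 for ~4–18 h. NFAT-driven GFP was measured by FACS versus parental JNG cells; scores +/- to 5+ denote ~5–50% GFP-positive cells.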

[3] = tested on: RS;411; assay: JNG assay, co-culture with RS;411 cells; conditions: co-culture with RS411
Experimental: Cellular supernatant is collected and assayed for the induction of cytokines (e.g., IL2).
JNG (Jurkat cells expressing EGFP under an NFAT promoter) were infected with lentiviral vectors encoding different single chain and multi-chain SARs by spinfection in the presence of 8 µg/ml of Polybrene® (Sigma, Catalog no. H9268). The Jurkat-NFAT-GFP cells are engineered in such a way that the IL-2 promoter, which carries NFAT binding sites, is cloned upstream of the GFP gene. These cells have been used to study signaling via TCR and CAR. The different SARs were stably expressed in Jurkat NFAT-GFP cells by lentiviral mediated gene transfer, followed by selection with puromycin or blasticidin. No drug selection was used in case the construct lacked an antibiotic resistance gene. The SAR-expressing Jurkat-NFAT-GFP cells were cocultured with the target cells at E:T ratio of approximately 1:2 for approximately 4 hours to 18 hours. When the interaction between SIRs and their target antigen results in activation of the NFAT pathway, GFP expression is induced. […] GFP expression was monitored by FACS analysis. The Jurkat-NFAT-GFP (parental) cells were used as control. The structure of different constructs can be determined based on their names. […] The sequence of the other constructs in the table can be similarly determined from their names and by referring to the different Tables of this disclosure that provide the names and SEQ ID NO of the different modules. Alternatively, the composition and modular architecture of the different SAR constructs can be determined from their sequences by bioinformatics tools, including using nucleic acid and amino acids homology searches. A SAR is considered positive in the assay in case the SAR expressing Jurkat-NFAT-GFP cells show greater % GFP positive cells when cultured with the target cell line as compared to parental Jurkat-NFAT-GFP cells. […] In general, the number +/-, +, 2+, 3+, 4+, 5+ refer to approximately 5%, 10%, 20%, 30%, 40% and 50% GFP positive cells. The % of GFP induction in the above assay is dependent not only the relative strength of the SAR but also, among other factors, on the relative level of expression of the SAR in the JNG cells and the relative level of expression of the target antigen in the target cell line. To control for the difference in gene transduction efficiency of the different SAR constructs, the experiment was conducted with JNG cells transduced with SAR constructs co-expressing a drug resistance gene (e.g., puromycin or PAC) followed by drug selection to generate a stable population of SAR-expressing cells. It is to be noted that the drug resistance gene (e.g., PAC) in the SAR constructs is optional and in vivo studies were conducted with SAR constructs lacking the PAC gene.

[4] = tested on: RAJI cells; assay: JNG assay, co-culture with RAJI cells; conditions: JNG cells expressing construct, co-culture with Raji
Summary of the method: as §1

Molecule	NFAT-GFP ASSAY: Nalm6 [1]	NFAT-GFP ASSAY: Raji-CD19-KO [2]	NFAT-GFP ASSAY: RS411 [3]	NFAT-GFP ASSAY: Raji [4]
B1	+/- (refer to approximately 5%, 10%, 20%, 30%, 40% and 50% GFP positive cells)	2+ (refer to approximately 5%, 10%, 20%, 30%, 40% and 50% GFP positive cells)		
B2			2+ (refer to approximately 5%, 10%, 20%, 30%, 40% and 50% GFP positive cells)	
B3	+/- (refer to approximately 5%, 10%, 20%, 30%, 40% and 50% GFP positive cells)	+/- (refer to approximately 5%, 10%, 20%, 30%, 40% and 50% GFP positive cells)		+/- (refer to approximately 5%, 10%, 20%, 30%, 40% and 50% GFP positive cells)
B4	5+ (refer to approximately 5%, 10%, 20%, 30%, 40% and 50% GFP positive cells)	4+ (refer to approximately 5%, 10%, 20%, 30%, 40% and 50% GFP positive cells)		
